Source: publication PMC5000626, “Urinary Dopamine as a Potential Index of the Transport Activity of Multidrug and Toxin Extrusion in the Kidney” (International Journal of Molecular Sciences, 2016)

Substrate: NCCc1ccc(O)c(O)c1
Assay: cells, lysate or membranes
Settings: other: [3H]dopamine uptake at 1 min, HEK293 cells expressing mMATE1, mean ± S.E., n=3; pH 7.4; 37.0 °C

B1: mMATE1 (Mus musculus) (protein)
chain: MERTEESAPGPGGADAASERRGLRCLLLPGFLEELRALLVLAGPAFLAQLMMFLISFISSVFCGHLGKLELDAVTLAIAVINVTGISVGHGLSSACDTLISQTYGSQNLKHVGVILQRGTLILLLCCFPCWALFINTEQILLLFRQDPDVSRLTQTYVMIFIPALPAAFLYTLQVKYLLNQGIVLPQIMTGIAANLVNALANYVFLYHLHLGVMGSALANTISQFALAIFLFLYILWRRLHQATWGGWSWECLQDWASFLRLAIPSMLMLCIEWWAYEVGSFLSGILGMVELGAQSITYELAIIVYMIPSGFSVAANVRVGNALGAGNIDQAKKSSAISLIVTELFAVTFCVLLLGCKDLVGYIFTTDRDIVALVAQVIPIYAVSHLFEGLACTCGGILRGTGNQKVGAIVNAIGYYVIGLPIGIALMFAAKLGVIGLWSGIIICTTCQTTCFLAFIARLNWKRACQQAQVHANLKVNVALNSAVSHEPAHPVCPESHGEIMMTDLEKKDETQLDQPMNQQQALPIRPKDSNKLSGKQLALRRGLLLLGVVLVLVGGILVRVYIRIE
  Km: 530 ± 80 µM
